The target in the assay is BG505_mut123_N241 SOSIP (HIV-1 (subtype A, BG505)) (UniProt Q2N0S6). As to the kind of experiment: negative-stain EM.

The values below come from article doi:10.1101/827477.

B1: 13B Fab (Fab, V domains shown)
VH: LEESGGGLVQPEGSLTLTCKASGFDFSDYHVQWVRQSPGKGLEFIGGIAYTGNIYYASWAKGRFTISKTSSTTVTLQMTTLTAADTATYFCARAYGYASAPYAQYFNLWGPGTLVTVSS
VL: DIVMTQTPASVSEPVGGTVTINCQASQSRGNNYLSWYQQKPGQSPSLLIYRTSTLASGVPSRFKGSGSGTQFTLTISDLECADAATYYCLYGYYSSRNPDFAFGGGTEVVVK
The molecule B1 registered a percent of particles with no Fab bound of 57% and a percent of particles with one Fab bound of 43%.
